Substrate in data set [1]: Nc1ncnc2c1ncn2[C@@H]1O[C@H](COP(=O)(O)OP(=O)(O)OP(=O)(O)O)[C@@H](O)[C@H]1O
Nature of the data set: purified protein. The format is biochemical, Arabidopsis thaliana. The following applies: apparent Km, 2.5 mM shikimate fixed, 100 mM Tris-HCl pH 8.0, 25°C.

Substrate in data set [2]: O=C(O)C1=C[C@@H](O)[C@@H](O)[C@H](O)C1
The data set can be described thus: purified protein. The format is biochemical, Arabidopsis thaliana. As to conditions: apparent Km, 2.5 mM ATP fixed, 100 mM Tris-HCl pH 8.0, 25°C.

We go through 2 proteins from paper PMC2593004, “Evolutionary Diversification of Plant Shikimate Kinase Gene Duplicates” (PLoS Genetics, 2008).

A word on the Km: it is the concentration of substrate that gives half-maximal velocity. Usually kcat stands for the number of substrate molecules converted per active site and unit of time at saturation.

B1: AtSK2Δ55 (Arabidopsis thaliana) (protein)
chain: LRSVSDKNSSALLETGSLLHSPFDEEQQILKKKAEEVKPYLNGRSMYLVGMMGSGKTTVGKIMARSLGYTFFDCDTLIEQAMKGTSVAEIFEHFGESVFREKETEALKKLSLMYHQVVVSTGGGAVIRPINWKYMHKGISIWLDVPLEALAHRIAAVGTGSRPLLHDDESGDTYTAALNRLSTIWDARGEAYTKASARVSLENITLKLGYRSVSDLTPAEIAIEAFEQVQSYLEKEDGMARPDGL
notes: predicted N-terminal chloroplast transit peptide removed (55 residues truncated)
As for B1, the Michaelis constant (Km) in “purified protein [1]” worked out at 246.7 ± 22.56 µM; in “purified protein [2]” it was 422.15 ± 31.16 µM. Moreover, the results for the kcat in “purified protein [1]” and in “purified protein [2]” were 149 ± 5.04 s⁻¹ and 136 ± 4.97 s⁻¹, respectively.

B2: AtSK1Δ55 (Arabidopsis thaliana) (protein)
chain: DQRRAVSPAVSCSDNNSSALLETGSVYPFDEDILKRKAEEVKPYLNGRSMYLVGMMGSGKTTVGKLMSKVLGYTFFDCDTLIEQAMNGTSVAEIFVHHGENFFRGKETDALKKLSSRYQVVVSTGGGAVIRPINWKYMHKGISIWLDVPLEALAHRIAAVGTDSRPLLHDESGDAYSVAFKRLSAIWDERGEAYTNANARVSLENIAAKRGYKNVSDLTPTEIAIEAFEQVLSFLEKEETMEIPDGDL
notes: as for B1
As for B2, the Km amounted to 218.02 ± 12.27 µM in “purified protein [1]” and 648.32 ± 23.45 µM in “purified protein [2]”. The kcat stood at 162 ± 3.01 s⁻¹ in the data set “purified protein [1]” and 148 ± 2.32 s⁻¹ in the data set “purified protein [2]”.
